B1: Refmab #2 (antibody, V domains shown)
VH: QVQLVQSGAEVKKPGSSVKVSCKASGGTFSDYAISWVRQAPGQGLEWMGRIIPILGVADYAQKFQGRVTITADKSTRTAYMELSSLRSEDTAVYYCARNWADAFDIWGQGTMVTVSS
VL: DIQLTQSPSSLSASVGDRVTITCRASQGISSVLAWYQQKPGKAPKLLIYDASSLESGVPSRFSGSGSGTDFTLTISSLQPEDFATYYCQQFDSSITFGQGTKLEIK
notes: Full-length format is human IgG1 Fc silent (PG-LALA); The alanine scan used IgG or Fab
B2: Refmab #3 (antibody, V domains shown)
VH: QVQLVQSGAEVKKPGSSVKVSCKASGYTFTDYNMHWVRQAPGQGLEWIGYIYPYNGGTGYNQKFKSKATITADESTNTAYMELSSLRSEDTAVYYCARGRPAMDYWGQGTLVTVSS
VL: DIQMTQSPSSLSASVGDRVTITCRASESVDNYGISFMNWFQQKPGKAPKLLIYAASNQGSGVPSRFSGSGSGTDFTLTISSLQPDDFATYYCQQSKEVPWTFGQGTKVEIK
notes: as for B1
B3: Refmab #1 (antibody, V domains shown)
VH: EVQLVQSGAEVKKPGSSVKVSCKASGYTITDSNIHWVRQAPGQSLEWIGYIYPYNGGTDYNQKFKNRATLTVDNPTNTAYMELSSLRSEDTAFYYCVNGNPWLAYWGQGTLVTVSS
VL: DIQLTQSPSTLSASVGDRVTITCRASESLDNYGIRFLTWFQQKPGKAPKLLMYAASNQGSGVPSRFSGSGSGTEFTLTISSLQPDDFATYYCQQTKEVPWSFGQGTKVEVK
notes: Full-length format is human IgG1 (Absolute Antibody Ab00283-10.0); The alanine scan used IgG or Fab; also called hP67.6
B4: Refmab #4 (antibody, V domains shown)
VH: QVQLVQSGAEVKKPGESVKVSCKASGYTFTNYGMNWVKQAPGQGLEWMGWINTYTGEPTYADKFQGRVTMTTDTSTSTAYMEIRNLGGDDTAVYYCARWSWSDGYYVYFDYWGQGTSVTVSS
VL: DIVMTQSPDSLTVSLGERTTINCKSSQSVLDSSTNKNSLAWYQQKPGQPPKLLLSWASTRESGIPDRFSGSGSGTDFTLTIDSPQPEDSATYYCQQSAHFPITFGQGTRLEIK
notes: as for B1
B5: Refmab #5 (antibody, human IgG1, V domains shown)
VH: QVQLVQSGAEVKKPGASVKVSCKASGYTFTNYDINWVRQAPGQGLEWIGWIYPGDGSTKYNEKFKAKATLTADTSTSTAYMELRSLRSDDTAVYYCASGYEDAMDYWGQGTTVTVSS
VL: DIQMTQSPSSLSASVGDRVTINCKASQDINSYLSWFQQKPGKAPKTLIYRANRLVDGVPSRFSGSGSGQDYTLTISSLQPEDFATYYCLQYDEFPLTFGGGTKVEIK
B6: Refmab #6 (antibody, human IgG1, V domains shown)
VH: QVQLQQPGAEVVKPGASVKMSCKASGYTFTSYYIHWIKQTPGQGLEWVGVIYPGNDDISYNQKFQGKATLTADKSSTTAYMQLSSLTSEDSAVYYCAREVRLRYFDVWGQGTTVTVSS
VL: EIVLTQSPGSLAVSPGERVTMSCKSSQSVFFSSSQKNYLAWYQQIPGQSPRLLIYWASTRESGVPDRFTGSGSGTDFTLTISSVQPEDLAIYYCHQYLSSRTFGQGTKLEIK

biological target: human CD33 Q26A (human, UniProt P20138 18-364); experiment: alanine scan, flow cytometry;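 note: HEK293-T cells transiently expressing single-residue alanine mutants of CD33 (alanine swapped to serine), antibody binding read by fluorescence in duplicate, background-subtracted, expressed relative to wild-type CD33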
Sequence (P20138 18-364 Q26A limits assumed): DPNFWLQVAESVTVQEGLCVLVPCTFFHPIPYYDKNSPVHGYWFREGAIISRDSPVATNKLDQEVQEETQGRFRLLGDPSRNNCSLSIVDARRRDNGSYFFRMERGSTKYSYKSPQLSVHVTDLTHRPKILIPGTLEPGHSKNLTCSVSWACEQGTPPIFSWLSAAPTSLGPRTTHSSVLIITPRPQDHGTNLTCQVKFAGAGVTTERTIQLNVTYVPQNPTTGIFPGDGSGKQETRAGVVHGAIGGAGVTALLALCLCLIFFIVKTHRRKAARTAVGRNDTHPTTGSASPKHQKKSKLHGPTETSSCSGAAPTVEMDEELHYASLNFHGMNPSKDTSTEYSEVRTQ

Mean % WT Binding [% WT]	Binder
111	B1
124	B2
81.4	B3
63.1	B4

biological target: human CD33 S28A (human, UniProt P20138 18-364); experiment: alanine scan, flow cytometry;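 note: HEK293-T cells transiently expressing single-residue alanine mutants of CD33 (alanine swapped to serine), antibody binding read by fluorescence in duplicate, background-subtracted, expressed relative to wild-type CD33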
Sequence (P20138 18-364 S28A limits assumed): as the sequence (P20138 18-364 Q26A limits assumed) above, with A9Q, S11A counted along it

Mean % WT Binding [% WT]	Binder
117	B1
193	B2
93.9	B3
79.9	B4

biological target: human CD33 T30A (human, UniProt P20138 18-364); experiment: alanine scan, flow cytometry;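 note: HEK293-T cells transiently expressing single-residue alanine mutants of CD33 (alanine swapped to serine), antibody binding read by fluorescence in duplicate, background-subtracted, expressed relative to wild-type CD33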
Sequence (P20138 18-364 T30A limits assumed): as the sequence (P20138 18-364 Q26A limits assumed) above, with A9Q, T13A counted along it

Mean % WT Binding [% WT]	Binder
92.1	B1
104	B2
89.3	B3
104	B4

biological target: human CD33 Q32A (human, UniProt P20138 18-364); experiment: alanine scan, flow cytometry;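 note: HEK293-T cells transiently expressing single-residue alanine mutants of CD33 (alanine swapped to serine), antibody binding read by fluorescence in duplicate, background-subtracted, expressed relative to wild-type CD33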
Sequence (P20138 18-364 Q32A limits assumed): as the sequence (P20138 18-364 Q26A limits assumed) above, with A9Q, Q15A counted along it

Mean % WT Binding [% WT]	Binder
108	B1
133	B2
87	B3
83	B4

biological target: human CD33 G34A (human, UniProt P20138 18-364); experiment: alanine scan, flow cytometry
Sequence (P20138 18-364 G34A limits assumed): as the sequence (P20138 18-364 Q26A limits assumed) above, with A9Q, G17A counted along it

Mean % WT Binding [% WT]	Binder
105	B1
99.4	B2
99.5	B3
93.4	B4

biological target: human CD33 L35A (human, UniProt P20138 18-364); experiment: alanine scan, flow cytometry
Sequence (P20138 18-364 L35A limits assumed): as the sequence (P20138 18-364 Q26A limits assumed) above, with A9Q, L18A counted along it

Mean % WT Binding [% WT]	Binder
119	B1
102	B2
89.1	B3
94.5	B4

biological target: human CD33 V39A (human, UniProt P20138 18-364); experiment: alanine scan, flow cytometry
Sequence (P20138 18-364 V39A limits assumed): as the sequence (P20138 18-364 Q26A limits assumed) above, with A9Q, V22A counted along it

Mean % WT Binding [% WT]	Binder
111	B1
122	B2
80	B3
58.4	B4

biological target: human CD33 P40A (human, UniProt P20138 18-364); experiment: alanine scan, flow cytometry
Sequence (P20138 18-364 P40A limits assumed): as the sequence (P20138 18-364 Q26A limits assumed) above, with A9Q, P23A counted along it

Mean % WT Binding [% WT]	Binder
101	B1
122	B2
74.5	B3
43	B4

biological target: human CD33 F44A (human, UniProt P20138 18-364); experiment: alanine scan, flow cytometry
Sequence (P20138 18-364 F44A limits assumed): as the sequence (P20138 18-364 Q26A limits assumed) above, with A9Q, F27A counted along it

Mean % WT Binding [% WT]	Binder
1.2	B1
85.1	B3
152	B4

biological target: human CD33 Y49A (human, UniProt P20138 18-364); experiment: alanine scan, flow cytometry
Sequence (P20138 18-364 Y49A limits assumed): as the sequence (P20138 18-364 Q26A limits assumed) above, with A9Q, Y32A counted along it

Mean % WT Binding [% WT]	Binder
44.2	B1
86.6	B2
106	B3
3.1	B4

biological target: human CD33 D51A (human, UniProt P20138 18-364); experiment: alanine scan, flow cytometry
Sequence (P20138 18-364 D51A limits assumed): as the sequence (P20138 18-364 Q26A limits assumed) above, with A9Q, D34A counted along it

Mean % WT Binding [% WT]	Binder
59	B1
126	B2
82.4	B3
36	B4

biological target: human CD33 V56A (human, UniProt P20138 18-364); experiment: alanine scan, flow cytometry
Sequence (P20138 18-364 V56A limits assumed): as the sequence (P20138 18-364 Q26A limits assumed) above, with A9Q, V39A counted along it

Mean % WT Binding [% WT]	Binder
80.7	B1
42.6	B2
94.3	B3
56.8	B4

biological target: human CD33 G64A (human, UniProt P20138 18-364); experiment: alanine scan, flow cytometry
Sequence (P20138 18-364 G64A limits assumed): as the sequence (P20138 18-364 Q26A limits assumed) above, with A9Q, G47A counted along it

Mean % WT Binding [% WT]	Binder
114	B1
96.6	B2
90.6	B3
93.9	B4

biological target: human CD33 S71A (human, UniProt P20138 18-364); experiment: alanine scan, flow cytometry
Sequence (P20138 18-364 S71A limits assumed): as the sequence (P20138 18-364 Q26A limits assumed) above, with A9Q, S54A counted along it

Mean % WT Binding [% WT]	Binder
112	B1
118	B2
108	B3
99.4	B4

biological target: human CD33 D79A (human, UniProt P20138 18-364); experiment: alanine scan, flow cytometry
Sequence (P20138 18-364 D79A limits assumed): as the sequence (P20138 18-364 Q26A limits assumed) above, with A9Q, D62A counted along it

Mean % WT Binding [% WT]	Binder
102	B1
105	B2
88.1	B3
74.5	B4

biological target: human CD33 Q80A (human, UniProt P20138 18-364); experiment: alanine scan, flow cytometry
Sequence (P20138 18-364 Q80A limits assumed): as the sequence (P20138 18-364 Q26A limits assumed) above, with A9Q, Q63A counted along it

Mean % WT Binding [% WT]	Binder
112	B1
123	B2
91.6	B3
124	B4

biological target: human CD33 E81A (human, UniProt P20138 18-364); experiment: alanine scan, flow cytometry
Sequence (P20138 18-364 E81A limits assumed): as the sequence (P20138 18-364 Q26A limits assumed) above, with A9Q, E64A counted along it

Mean % WT Binding [% WT]	Binder
107	B1
114	B2
83	B3
90.6	B4

biological target: human CD33 P19A (human, UniProt P20138 18-364); experiment: alanine scan, flow cytometry
Sequence (P20138 18-364 P19A limits assumed): as the sequence (P20138 18-364 Q26A limits assumed) above, with P2A, A9Q counted along it

Mean % WT Binding [% WT]	Binder
111	B1
75.2	B2
80.8	B3
20.4	B4

biological target: human CD33 Q87A (human, UniProt P20138 18-364); experiment: alanine scan, flow cytometry
Sequence (P20138 18-364 Q87A limits assumed): as the sequence (P20138 18-364 Q26A limits assumed) above, with A9Q, Q70A counted along it

Mean % WT Binding [% WT]	Binder
118	B1
161	B2
91	B3
94.2	B4

biological target: human CD33 G88A (human, UniProt P20138 18-364); experiment: alanine scan, flow cytometry
Sequence (P20138 18-364 G88A limits assumed): as the sequence (P20138 18-364 Q26A limits assumed) above, with A9Q, G71A counted along it

Mean % WT Binding [% WT]	Binder
110	B1
88.3	B2
96.1	B3
97.7	B4

biological target: human CD33 R91A (human, UniProt P20138 18-364); experiment: alanine scan, flow cytometry
Sequence (P20138 18-364 R91A limits assumed): as the sequence (P20138 18-364 Q26A limits assumed) above, with A9Q, R74A counted along it

Mean % WT Binding [% WT]	Binder
119	B1
150	B2
82	B3
100	B4

biological target: human CD33 L92A (human, UniProt P20138 18-364); experiment: alanine scan, flow cytometry
Sequence (P20138 18-364 L92A limits assumed): as the sequence (P20138 18-364 Q26A limits assumed) above, with A9Q, L75A counted along it

Mean % WT Binding [% WT]	Binder
106	B1
129	B2
75.2	B3
85.2	B4

biological target: human CD33 D51Y (human, UniProt P20138 18-364); experiment: flow cytometry, transfected cells, IgG;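 note: CD33 point mutants transiently expressed in HEK293-T cells, antibody binding read by fluorescence, background subtracted and normalized to wild-type CD33 as 100%, duplicates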
Sequence (P20138 18-364 D51Y limits assumed): as the sequence (P20138 18-364 Q26A limits assumed) above, with A9Q, D34Y counted along it
Description: (§1) An alanine scan on human CD33 was performed to the determine the residues on CD33 that are involved in binding to the antibodies investigated. […] Briefly, a mutation library of CD33 was created by high-throughput, site-directed mutagenesis. Each residue was individually mutated to alanine, with alanine codons mutated to serine. The mutant library was arrayed in 384-well microplates and transiently transfected into HEK293-T. Following transfection, cells were incubated with the indicated antibodies (IgG or Fab) at concentrations pre-determined using an independent immunofluorescence titration curve on wild type CD33. […] Binding of each antibody to each mutant clone was determined in duplicates. For each point, background fluorescence was subtracted from the raw data, which were then normalized to antibody reactivity with wild type CD33.
(§2) Antibodies were screened for binding to the human CD33 variants in IgG format. […] For each mutation, background fluorescence was subtracted from the raw data, which were then normalized to antibody reactivity with wild-type CD33.

Mean % WT Binding [%]	Binder
57.1	B5
71.3	B6

biological target: human CD33 K52G (human, UniProt P20138 18-364); experiment: flow cytometry, transfected cells, IgG;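 note: CD33 point mutants transiently expressed in HEK293-T cells, antibody binding read by fluorescence, background subtracted and normalized to wild-type CD33 as 100%, duplicates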
Sequence (P20138 18-364 K52G limits assumed): as the sequence (P20138 18-364 Q26A limits assumed) above, with A9Q, K35G counted along it
Description: as §1, §2

Mean % WT Binding [%]	Binder
2.6	B5
105	B6

biological target: human CD33 K52H (human, UniProt P20138 18-364); experiment: flow cytometry, transfected cells, IgG;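 note: CD33 point mutants transiently expressed in HEK293-T cells, antibody binding read by fluorescence, background subtracted and normalized to wild-type CD33 as 100%, duplicates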
Sequence (P20138 18-364 K52H limits assumed): as the sequence (P20138 18-364 Q26A limits assumed) above, with A9Q, K35H counted along it
Description: as §1, §2

Mean % WT Binding [%]	Binder
59.7	B5
86.1	B6

biological target: human CD33 M120I (human, UniProt P20138 18-364); experiment: flow cytometry, transfected cells, IgG;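 note: CD33 point mutants transiently expressed in HEK293-T cells, antibody binding read by fluorescence, background subtracted and normalized to wild-type CD33 as 100%, duplicates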
Sequence (P20138 18-364 M120I limits assumed): as the sequence (P20138 18-364 Q26A limits assumed) above, with A9Q, M103I counted along it
Description: as §1, §2

Mean % WT Binding [%]	Binder
93	B5
102	B6

biological target: human CD33 R122F (human, UniProt P20138 18-364); experiment: flow cytometry, transfected cells, IgG
Sequence (P20138 18-364 R122F limits assumed): as the sequence (P20138 18-364 Q26A limits assumed) above, with A9Q, R105F counted along it
Description: as §1, §2

Mean % WT Binding [%]	Binder
90.1	B5
92.5	B6

biological target: human CD33 Y127R (human, UniProt P20138 18-364); experiment: flow cytometry, transfected cells, IgG
Sequence (P20138 18-364 Y127R limits assumed): as the sequence (P20138 18-364 Q26A limits assumed) above, with A9Q, Y110R counted along it
Description: as §1, §2

Mean % WT Binding [%]	Binder
108	B5
108	B6

biological target: human CD33 Y129S (human, UniProt P20138 18-364); experiment: flow cytometry, transfected cells, IgG
Sequence (P20138 18-364 Y129S limits assumed): as the sequence (P20138 18-364 Q26A limits assumed) above, with A9Q, Y112S counted along it
Description: as §1, §2

Mean % WT Binding [%]	Binder
94.7	B5
99.6	B6

biological target: human CD33 S131T (human, UniProt P20138 18-364); experiment: flow cytometry, transfected cells, IgG
Sequence (P20138 18-364 S131T limits assumed): as the sequence (P20138 18-364 Q26A limits assumed) above, with A9Q, S114T counted along it
Description: as §1, §2

Mean % WT Binding [%]	Binder
89	B5
99.5	B6

biological target: human CD33 S131I (human, UniProt P20138 18-364); experiment: flow cytometry, transfected cells, IgG
Sequence (P20138 18-364 S131I limits assumed): as the sequence (P20138 18-364 Q26A limits assumed) above, with A9Q, S114I counted along it
Description: as §1, §2

Mean % WT Binding [%]	Binder
84.8	B5
24	B6

biological target: human CD33 S131W (human, UniProt P20138 18-364); experiment: flow cytometry, transfected cells, IgG
Sequence (P20138 18-364 S131W limits assumed): as the sequence (P20138 18-364 Q26A limits assumed) above, with A9Q, S114W counted along it
Description: as §1, §2

Mean % WT Binding [%]	Binder
94.5	B5
1.1	B6

biological target: human CD33 P132S (human, UniProt P20138 18-364); experiment: flow cytometry, transfected cells, IgG
Sequence (P20138 18-364 P132S limits assumed): as the sequence (P20138 18-364 Q26A limits assumed) above, with A9Q, P115S counted along it
Description: as §1, §2

Mean % WT Binding [%]	Binder
105	B5
3.2	B6

biological target: human CD33 P132V (human, UniProt P20138 18-364); experiment: flow cytometry, transfected cells, IgG
Sequence (P20138 18-364 P132V limits assumed): as the sequence (P20138 18-364 Q26A limits assumed) above, with A9Q, P115V counted along it
Description: as §1, §2

Mean % WT Binding [%]	Binder
86.9	B5
84.6	B6

biological target: human CD33 P132L (human, UniProt P20138 18-364); experiment: flow cytometry, transfected cells, IgG
Sequence (P20138 18-364 P132L limits assumed): as the sequence (P20138 18-364 Q26A limits assumed) above, with A9Q, P115L counted along it
Description: as §1, §2

Mean % WT Binding [%]	Binder
89.6	B5
6.1	B6

biological target: human CD33 P132Y (human, UniProt P20138 18-364); experiment: flow cytometry, transfected cells, IgG
Sequence (P20138 18-364 P132Y limits assumed): as the sequence (P20138 18-364 Q26A limits assumed) above, with A9Q, P115Y counted along it
Description: as §1, §2

Mean % WT Binding [%]	Binder
84.3	B5
1.1	B6

biological target: human CD33 P132H (human, UniProt P20138 18-364); experiment: flow cytometry, transfected cells, IgG
Sequence (P20138 18-364 P132H limits assumed): as the sequence (P20138 18-364 Q26A limits assumed) above, with A9Q, P115H counted along it
Description: as §1, §2

Mean % WT Binding [%]	Binder
88.2	B5
86.6	B6

biological target: human CD33 P132Q (human, UniProt P20138 18-364); experiment: flow cytometry, transfected cells, IgG
Sequence (P20138 18-364 P132Q limits assumed): as the sequence (P20138 18-364 Q26A limits assumed) above, with A9Q, P115Q counted along it
Description: as §1, §2

Mean % WT Binding [%]	Binder
88.4	B5
5.4	B6

biological target: human CD33 L134I (human, UniProt P20138 18-364); experiment: flow cytometry, transfected cells, IgG
Sequence (P20138 18-364 L134I limits assumed): as the sequence (P20138 18-364 Q26A limits assumed) above, with A9Q, L117I counted along it
Description: as §1, §2

Mean % WT Binding [%]	Binder
92.9	B5
89.4	B6

biological target: human CD33 L134Q (human, UniProt P20138 18-364); experiment: flow cytometry, transfected cells, IgG
Sequence (P20138 18-364 L134Q limits assumed): as the sequence (P20138 18-364 Q26A limits assumed) above, with A9Q, L117Q counted along it
Description: as §1, §2

Mean % WT Binding [%]	Binder
62.2	B5
47.1	B6
